Source: PMC4846058

How the values were obtained:
[1] = target: cynomolgus monkey IL-17A (Macaca fascicularis); experiment: SPR
ixekizumab (human) = experiment: SPR

Row | Substance | Kd [1] | KD, heterogeneous ligand model, first set (ixekizumab (human)) | KD, heterogeneous ligand model, second set (ixekizumab (human)) | koff, heterogeneous ligand model, first set (ixekizumab (human)) | koff, heterogeneous ligand model, second set (ixekizumab (human)) | kon, heterogeneous ligand model, first set (ixekizumab (human))
1 | ixekizumab (antibody) | 0.0008 nM | – | – | – | – | –
2 | rabbit IL-17A (ligand) | – | 1.3 nM | 14 nM | 0.00017 s⁻¹ | 0.11 s⁻¹ | 150000 M⁻¹ s⁻¹
